B1: PDZ domain of the human MAST2 protein (other)
chain: MRPPIIIHRAGKKYGFTLRAIRVYMGDSDVYTVHHMVWHVEDGGPASEAGLRQGDLITHVNGEPVHGLVHTEVVELILKSGNKVAISTTPLEN
As to B1, the Kd with 455 was 130 nM; with 439, 210 nM; in the test with 443, 400 nM; in the test with 453 it was 238 nM; with 461, 126 nM; with 460 it was 188 nM.

Usually Kd stands for the concentration at which binding is half-saturated. A higher Kd goes with lower affinity.
